The source of these data is publication doi:10.1101/2024.01.31.578278.

The data set concerns the target cytochrome c (CytC), recombinant human (human, UniProt P99999 1-105). Put plainly: electrochemical aptasensor.

cytochrome c (CytC), recombinant human, sequence (P99999 whole entry): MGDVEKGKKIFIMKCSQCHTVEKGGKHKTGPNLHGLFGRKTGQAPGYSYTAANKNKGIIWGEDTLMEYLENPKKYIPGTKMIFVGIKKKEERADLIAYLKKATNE

B1: CytC aptamer (ssDNA)
DNA: CCGTGTCTGGGGCCGACCGGCGCATTGGGTACGTTGTTGC
modifications: 5' thiol C6 (ThioMC6-D, disulfide reduced); 3' amino modifier (AmMO)
For the molecule B1, the Kd (in general, a measure of binding affinity in units of concentration) was 6.19 ± 1.57 ng/mL.
